Reference: patent publication US20230115257A1 (published 2023)
Changes are numbered by the printed parent chain.

B1: 10-I12-A (antibody, V domains shown)
VH: RVQLQQSGPELVRPGTSVKISCKASGYTFTDSYINWVTQRPGQGLDWIGWIFPGNDNTYYNEKFEGKATLTLDKSSSTAYMLLSSLTSEDSAVYFCARSGGLRLGFAYWGQGTLVTVSA
VL: NIVLTQSPASLAVSRGQRATISCRASESVDSYGHSFIHWYQQKPGQPPKILIYLASKLESGVPARFSGSGSRTDFTLTIDPVEADDAATYYCQQNNEDPWTFGGGTKLEIK
B2: 9-P9-A (antibody, V domains shown)
VH: DVKLVESGEGLVKPGGSLKLSCAASGFSFSNFGMSWVRQTPEKRLEWVAYISSGGDYIYYADTVKGRFTISRDNARNTLYLQMSSLKSEDTAIYYCTRGYFDYWGQGTTLTVSS
VL: DVLMTQTPLSLPVSLGDQASISCRSSQSIVHSNGNTYLEWYLQKPGQSPKLLIYTVSNRFSGVPDRFSGSGSGTDFTLKISRVEAEDLGVYYCFQGSHVPYTFGGGTKLEMR
B3: 5-H22-A (antibody, V domains shown)
VH: QVQLQQSGAELVRPGASVTLSCKASGYTFTDYEMHWMKQTPVHGLEWIGAIDLETGGTVYNQKFKGKAILTADKSSNTAYMALRSLTSEDSAVYYCTREFPHYYGSRYGFPYWGQGTLVTVSA
VL: QIVLTQSPAIMSASPGEKVTITCSASSSVSYMHWLQQKPGTSPKLWIYSTSNLASGVPARFSGSGSGTSYSLTISRMEAEDAATYYCQQRSSYPYTFGGGTKLEIK
B4: 8-N24-A (antibody, V domains shown)
VH: QVQLQQPGAELVKPGASVKVSCKASGYTFTSYWMHWVKQRPGQGLEWIGRIHPSDSDTNYYQKFKGKATLSVDKSSSTAYMQLSSLTSEDSAVYYCAIPLYSYDNSGGYYPMDYWGQGTSVTVSS
VL: DIVMTQSQKFMSTSVGDRVTITCKASQNVRTAVAWYQQKPGQSPKKLIYLASNRHTGVPDRFTGSGSGTDFTLAISNVQSEDLADYFCLQHWNYPFTFGSGTRLEIK
B5: 3-E13-A (antibody, V domains shown)
VH: EVQLQQSGPELVKPGASVKMSCKASGYTFTDYNIHWVKQSHGKSLEWIGYINPNNGGTDYNQKFQGKATLTVNKSSSTAYMELRSLTSEDFAVYYCARGGFYGNYGAYYGMDFWGQGTSVTVSS
VL: DIQMTQSPASLSASVGETVTITCRTSENIYSHLAWYQQTQGKSPQLLVYNAKTLAEGVPSRFSGSGSGTHFSLKINSLQPEDFGSYYCQHHYGIPPEFGGGTKLEIK
B6: 2-J9-A (antibody, V domains shown)
VH: B5 VH with F91S
VL: B5 VL with A51T, S63T, H70Q
B7: 9-L13-A (antibody, V domains shown)
VH: QVQLKESGPGLVAPSQSLSITCTVSGFSLTSYAISWVRQPPGKGLEWLGLIWTGGGTNYNSALKSRLSISKDNSKSQIFLKMNSLQTDDTARYYCARGPPLIYYGDLYYFDYWGQGTTLTVSS
VL: DIQMTQSPSSLSASLGGKVTITCKASQDINKYIAWYQHKPGKGPRLLIHYTSTLQPGIPSRFSGSGSGRDYSFSISNLEPEDIATYYCLQYDNLWTFGGGTKLEIK
B8: 4-C3-A (antibody, V domains shown)
VH: EVQLQQSGPELVKPGASVKISCKASGYSFTGYYMHWVKQSHGNILDWIGYIYPYNGVSSYNQKFKGKATLTVDKSSSTAYMELRSLTSEASAVYYCARAYGSSYDYYYGLDYWGQGTSVTVSS
VL: DIVLTQSPASLAVSLGQRATISCKASQSVDYDGAGYMNWYQQKPGQPPKLLISSASNLQSGIPARFSGSGSGTDFTLNIHPVEEEDAATYYCQQSNDDPYTFGGGTKLEIK
B9: 9-J11-A (antibody, V domains shown)
VH: QVQLQQSGAELVKPGASVKMSCMASGYTFTTYPIEWMKQIHGKSLEWIGNFHPYNDDSKYNEKFKGKATLSVEKSSSTVYLELSRSTSDDSAVYYCARGSYGPYWYFDVWGTGTTVTVSS
VL: DIQMTQSPASLSASVGETVTITCRASGDIHNYLVWYQQKQGKSPQLLVYNAKALADGVPSRFSGSGSGTQYSLKINSLQPDDFGSYYCQHFWSIPYTFGGGTKLEIK

Columns and labels:
[1] = biological target: SARS-CoV-2 BA.2 spike trimer variant (SARS-CoV-2 Omicron BA.2, UniProt P0DTC2 16-1213); experiment: ELISA
[2] = biological target: SARS-CoV-2 B.1.1.529 spike trimer variant (SARS-CoV-2 B.1.1.529 (Omicron), UniProt P0DTC2 16-1213); experiment: ELISA

Row | Binder | EC50 [1] [pM] | EC50 [2] [pM]
1 | B1 | 81100 | –
2 | B2 | 300 | 290
3 | B3 | – | 1260
4 | B4 | 3250 | 4190
5 | B5 | 350 | 350
6 | B6 | 310 | 400
7 | B7 | 12000 | 10900
8 | B8 | 3070 | 710
9 | B9 | 8210 | 390
